The source of these data is patent publication US20220403048A1, “BINDING MOLECULES TO ARGINASE II [ARG2]” (Cancer Research Technology Limited, priority 2019, published 2022).

In assay [1] the target is T1, human ARG1 (Homo sapiens, UniProt P05089).
T1 construct: Avi tag (N); His10 (after a GGG linker) (C); made in house; host or cells: E. coli BL21 (DE3)
T1 sequence (P05089 with tags, fused parts or gaps): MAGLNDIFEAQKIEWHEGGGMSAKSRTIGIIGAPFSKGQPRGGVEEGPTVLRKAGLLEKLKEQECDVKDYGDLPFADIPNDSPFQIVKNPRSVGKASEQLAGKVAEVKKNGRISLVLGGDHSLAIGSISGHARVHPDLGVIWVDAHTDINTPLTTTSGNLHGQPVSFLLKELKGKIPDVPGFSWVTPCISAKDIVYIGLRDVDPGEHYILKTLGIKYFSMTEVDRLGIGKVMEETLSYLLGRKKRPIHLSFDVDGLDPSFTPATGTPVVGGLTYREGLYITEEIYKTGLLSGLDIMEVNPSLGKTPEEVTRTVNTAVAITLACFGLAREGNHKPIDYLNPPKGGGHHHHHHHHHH
In words: Bio-Layer Interferometry (OctetRED) binding, human ARG1. The note with it: Fab analyte up to 120 nM, screening assay on anti-His surface. Here is the method: (§1) The affinity of binding between the Fab of C0020187 and human ARG2, cynomolgus ARG2 and human ARG1 was estimated using assays in which the biotinylated ARG antigen was captured on a streptavidin sensor tip. A fresh sensor tip was used for each measurement and no regeneration was used. A series of dilutions of the C0020187 Fab (3.25-240 nM) were individually placed in contact with the ligand surface for a sufficient amount of time to observe sensorgrams that could be fitted to an appropriate binding model with confidence (typically 5 minutes), followed by an appropriate length of dissociation time (typically 10 minutes). Blank reference (0 nM Fab) data were subtracted from each dataset to reduce the impact of any buffer artefacts or non-specific binding effects. An appropriate binding model was then fitted simultaneously to the data from each analyte titration using the Octet Evaluation software.
The binding of affinity-matured antibodies to human ARG1 was also tested on the OctetRED system using a screening assay which stably captures […] as the ligand on an anti-His surface. The Fabs were typically tested in an analyte range of 1.8 to 120 nM, with an association time of 5 minutes and a dissociation time of 10 minutes. Sensors were regenerated using 10 mM glycine pH 1.5 after each cycle.
Binding of the second-generation antibodies to human ARG was also tested on the OctetRED system using a screening assay which stably captures […] as the ligand on an anti-His surface. The Fabs were tested as analyte up to 120 nM, with an association time of 5 minutes and a dissociation time of 10 minutes. Sensors were regenerated using 10 mM glycine pH 1.5 after each cycle.
(In general: Biolayer interferometry detects binding as a change in optical thickness at a sensor tip.)

Assay [2] addresses T2, human ARG2 (Homo sapiens, UniProt P78540, E275H/R327K).
T2 construct: His10 (after a GGG linker) (C); made in house; host or cells: E. coli BL21 (DE3)
T2 sequence (P78540 23-354 E275H/R327K): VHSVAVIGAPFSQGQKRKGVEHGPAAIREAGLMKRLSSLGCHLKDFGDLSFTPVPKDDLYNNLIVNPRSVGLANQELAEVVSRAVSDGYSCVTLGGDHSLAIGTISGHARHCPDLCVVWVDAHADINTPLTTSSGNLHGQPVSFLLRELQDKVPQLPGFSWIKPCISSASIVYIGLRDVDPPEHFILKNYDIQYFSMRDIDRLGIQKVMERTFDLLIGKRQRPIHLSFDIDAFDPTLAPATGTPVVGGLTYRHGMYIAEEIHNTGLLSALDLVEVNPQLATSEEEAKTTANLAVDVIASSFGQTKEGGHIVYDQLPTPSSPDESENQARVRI
In words: Bio-Layer Interferometry (OctetRED) binding kinetics, human ARG2. The note with it: second-generation Fab; extended assay: association 10 min, dissociation 40 min, 0.47 to 30 nM, streptavidin surface with bio-ARG2.
Description: (§2) The OctetRED (Pall ForteBio) instrument was used to assess the kinetic parameters of the interactions between C0020187 and recombinantly produced human ARG2, cynomolgus ARG2 and human ARG1. The Octet biosensor uses an optical analytical technique that analyses the interference pattern of white light reflected from two surfaces: a layer of immobilised protein on the sensor tip, and an internal reference layer. Any changes in binding at the biosensor tip result in a shift in interference pattern, which can be measured in real time. Molecules associating with or dissociating from ligands at the biosensor tip shift the interference pattern and generate a response on the Octet system which is recorded by the acquisition software.
(§3) Typically, a defined concentration of the analyte species is brought into contact with the coupled ligand and any binding is detected as an increased in signal (association phase). This is followed by a period of buffer rinse, during which dissociation of the analyte species from the surface immobilised ligand can be observed as a decrease in signal (dissociation phase). Repetition of this with a range of analyte concentrations provides data for the analysis of binding kinetics.
(§4) An Octet Kinetics Buffer (PBS containing 0.01% BSA and 0.002% Tween20) is typically used as the diluent buffer for the analyte samples and as the flow buffer during the dissociation phase. The experimental data is recorded over time as shift in interference pattern (nm) over time, which is directly proportional to the optical thickness at the biosensor tip, which in turn is an approximate measure of the mass of analyte bound. The proprietary Octet Data Analysis software package can then be used to process data and fit binding models to the data sets. Returned association (ka, M^−1 s^−1) and dissociation (kd, s^−1) rate constants allow calculation of dissociation (KD, M) affinity constants.
as §1
(§5) Example results for C0020187 are shown in Table 9, showing the association rate constants (ka), dissociation rate constants (kd) and dissociation constants (KD). These parameters were derived from a 1:1 binding fit to the data.
(§6) The affinities of the affinity-matured antibodies to human ARG2 were measured on the OctetRED system as described in section 1.15 using the streptavidin capture method. Typically, an analyte titration range of 1.8 to 120 nM was used.
The affinities of the second-generation antibodies to human ARG2 were measured on the OctetRED system. A screening assay which stably captures His-tagged ARG2 as the ligand on an anti-His surface was utilised to screen the second-generation candidates as Fabs at an analyte range of 1.8 to 120 nM, with an association time of 5 minutes and a dissociation time of 10 minutes. Sensors were regenerated using 10 mM glycine pH 1.5 after each cycle. Based on this assay, six candidates with estimated affinities in the sub-nanomolar range were identified, and they were further profiled using an extended assay which is more suitable for antibodies of high affinities. […]

The test system of assay [3] is cynomolgus ARG2. Put plainly: Bio-Layer Interferometry (OctetRED) binding kinetics, cynomolgus ARG2. The following applies: second-generation Fab; cyno ARG2 ligand; same extended assay.
Description: as §2, §3, §4, §1, §5, §6
The affinities of some of these antibodies to cynomolgus ARG2 were determined using the same assay, and the derived kinetic parameters are shown in Table 21.

cynomolgus ARG2, sequence (as listed by the source): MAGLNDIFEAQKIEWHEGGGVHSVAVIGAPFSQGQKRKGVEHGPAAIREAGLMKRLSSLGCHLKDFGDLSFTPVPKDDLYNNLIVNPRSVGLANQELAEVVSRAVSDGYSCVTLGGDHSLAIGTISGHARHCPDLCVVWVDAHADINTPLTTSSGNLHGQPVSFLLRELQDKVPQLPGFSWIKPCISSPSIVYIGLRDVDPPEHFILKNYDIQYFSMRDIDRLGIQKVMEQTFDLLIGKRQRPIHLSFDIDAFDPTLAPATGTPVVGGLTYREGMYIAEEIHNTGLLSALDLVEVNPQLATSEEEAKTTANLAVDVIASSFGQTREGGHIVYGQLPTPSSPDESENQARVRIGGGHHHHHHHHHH

B1: C0021180: anti-ARG2 antibody, VH SEQ ID NO: 332, VL SEQ ID NO: 337 (antibody, listed as Homo sapiens, V domains shown)
VH: EVQLLESGGGLVQPGGSLRLSCAASGFTFRYEVAAWVRQAPGKGLEWVSAISGPIPKGYYADSVKGRFTISRDNSKNTLYLQMNSLRAEDTAVYYCARLRADLGLYMDLWGRGTLVTVSS
VL: QSVLTQPPTVSAAPGRKVTISCSGSSSNIGDHHVSWYQQLPGAAPKLLIYDTDHMASGIPDRFSGSRSGTSATLGITGLQTGDEADYYCGTWDSSLSALVFGGGTKLTVL
modifications: C0021180
With B1, the “Results, binding to human ARG1 (BLI)” value in assay [1] is given as “No binding observed”. Besides, in assay [2], the ka was 278000 M⁻¹ s⁻¹ and the kd was 0.000122 s⁻¹. In assay [3], this molecule had a ka of 381000 M⁻¹ s⁻¹ and a kd of 0.000135 s⁻¹.

B2: C0021181: anti-ARG2 antibody, VH SEQ ID NO: 342, VL SEQ ID NO: 347 (antibody, listed as Homo sapiens, V domains shown)
VH: EVQLLESGGGLVRPGGSLRLSCAASEFTFRYDYHVWVRQAPGKGLEWVSAISGSGGSTYYADSVKSRFTISRDNSKNTLYLQMNSLRAEDTAVYYCARLRADLGLYMDLWGRGTLVTVSS
VL: QSVLTQPPSVSAAPGQKVAVSCSGSSSNIGSHYVSWYQQLPGTAPKLLIYDNSERTSGIPDRFSGSKSGTSATLGITGLQTGDEADYYCGTWDELTSNLVFGGGTRLTVL
modifications: C0021181
As to B2, the “Results, binding to human ARG1 (BLI)” value in assay [1] is given as “No binding observed”. Also, in assay [2], the ka is 145000 M⁻¹ s⁻¹ and the kd was 4.17e-05 s⁻¹. Also, in assay [3], the ka was determined as 257000 M⁻¹ s⁻¹ and the kd is 4.43e-05 s⁻¹.
